For one assay, the system named is human CRP promoter. The experiment in a line: Human CRP promoter luciferase reporter in H2.35 cells. The class given is cell-based. How it is done:
(§1) FIG. 10 depicts activation of expression of APR genes in vivo. (A) The nuclear form of CREBH or ATF6 activates expression of the endogenous SAP mRNA in mice. Northern blot analysis of the endogenous SAP mRNA in mice injected with vector expressing the nuclear form of ATF6 (ATF6 p50) or CREBH (CREBH-N). Wild-type C57BL/6J mice at 3 months of age were injected with 80 μg plasmid DNA expressing ATF6 p50, CREBH-N or empty vector DNA through hydrodynamic plasmid DNA tail-vein injection (Miao et al. 2004). Liver samples were collected from mice at 36 hours after injection, and were subjected to Northern blot analysis to detect the murine SAP mRNA levels. Experiments were performed at least 3 times and representative data is shown. (B-C) Nuclear forms of CREBH and ATF6 act synergistically to induce transcription from the human CRP promoter and the UPRE motif. To detect synergistic effects of CREBH and ATF6 on expression of the reporter, vector DNA (15 ng control vector, 10 ng CREBH- and/or 15 ng AFT6-expression vector) was mixed with 100 ng reporter construct and 150 ng pcDNA3-lacZ for transfection of H2.35 cells in one well of a 6-well plate. The amount of luciferase activity was normalized to the amount of β-galactosidase activity.
FIG. 11 depicts the synergistic interaction of CREBH with ATF6 to activate transcription of the major APR genes. (A) Luciferase reporter analysis of trans-activation effects of CREBH on promoters of the murine SAP gene and the human CRP gene in H2.35 cells. H2.35 cells in a 35 mm collagen-coated plate were co-transfected with a control vector or a CREBH expression vector (0.25 μg), the luciferase reporter (0.6 μg) and pcDNA3-LacZ (0.25 μg), and were then cultured in the absence or presence of Tm (5 μg/ml) for 10 hours. (B) CREBH-DN efficiently suppresses CREBH trans-activation on the murine SAP and the human CRP promoters. H2.35 cells were co-transfected with the luciferase reporter construct and a control vector or a vector expressing CREBH-DN, and were then cultured in the absence or presence of Tm (5 μg/ml) for 10 hours. (C) Interaction between ATF6 and CREBH was determined by IP-Western blot analysis. 293T cells were transfected with a control vector or a vector expressing the nuclear/cleaved form of CREBH, and were then cultured in the absence or presence of Tm for 8 hours. Total cell lysates were immunoprecipated by using an anti-human ATF6 polyclonal antibody or an anti-flag antibody and were then subjected to Western blot analysis by using anti-flag antibody or anti-human ATF6 antibody. Expression levels of CREBH in the transfected cells were determined by Western blot analysis of total cell lysates using the anti-flag antibody (lower panel). (D) Luciferase reporter analysis showing trans-activation effects of the nuclear forms of ATF6 or CREBH on the murine SAP and human CRP promoters in H2.35 cells. H2.35 cells in a 35 mm collagen-coated plate were co-transfected with a vector expressing ATF6 p50 or CREBH-N (0.25 μg), the luciferase reporter (0.6 μg) and pcDNA3-LacZ (0.25 μg). (E-F) Luciferase reporter analysis showing synergistic effects of CREBH and ATF6 on transcriptional induction from the murine SAP promoter (E), and the human CRP promoter (F) in H2.35 cells. […]
(In a reporter assay the amount or activity of a reporter protein is the signal.)

The next assay relates to murine SAP promoter. Description: Murine SAP promoter luciferase reporter in H2.35 cells. In kind it is cell-based. How it is done: FIG. 11 depicts the synergistic interaction of CREBH with ATF6 to activate transcription of the major APR genes. (A) Luciferase reporter analysis of trans-activation effects of CREBH on promoters of the murine SAP gene and the human CRP gene in H2.35 cells. H2.35 cells in a 35 mm collagen-coated plate were co-transfected with a control vector or a CREBH expression vector (0.25 μg), the luciferase reporter (0.6 μg) and pcDNA3-LacZ (0.25 μg), and were then cultured in the absence or presence of Tm (5 μg/ml) for 10 hours. (B) CREBH-DN efficiently suppresses CREBH trans-activation on the murine SAP and the human CRP promoters. H2.35 cells were co-transfected with the luciferase reporter construct and a control vector or a vector expressing CREBH-DN, and were then cultured in the absence or presence of Tm (5 μg/ml) for 10 hours. (C) Interaction between ATF6 and CREBH was determined by IP-Western blot analysis. 293T cells were transfected with a control vector or a vector expressing the nuclear/cleaved form of CREBH, and were then cultured in the absence or presence of Tm for 8 hours. Total cell lysates were immunoprecipated by using an anti-human ATF6 polyclonal antibody or an anti-flag antibody and were then subjected to Western blot analysis by using anti-flag antibody or anti-human ATF6 antibody. Expression levels of CREBH in the transfected cells were determined by Western blot analysis of total cell lysates using the anti-flag antibody (lower panel). (D) Luciferase reporter analysis showing trans-activation effects of the nuclear forms of ATF6 or CREBH on the murine SAP and human CRP promoters in H2.35 cells. H2.35 cells in a 35 mm collagen-coated plate were co-transfected with a vector expressing ATF6 p50 or CREBH-N (0.25 μg), the luciferase reporter (0.6 μg) and pcDNA3-LacZ (0.25 μg). (E-F) Luciferase reporter analysis showing synergistic effects of CREBH and ATF6 on transcriptional induction from the murine SAP promoter (E), and the human CRP promoter (F) in H2.35 cells. To detect synergistic effects of CREBH and ATF6 on reporter gene expression, vector DNA (25 ng control vector, 20 ng CREBH- and/or 25 ng ATF6-expression vector) was mixed with 100 ng reporter construct and 150 ng pcDNA3-lacZ for transfection of H2.35 cells in a 35 mm collagen-coated plate.
Plasmids, pME18S, pME-CREBH Full and pME-CRE1H d™ were kindly provided by Dr. Sumio Sugano (Institute of Medical Science, University of Tokyo, Japan) (Omori et al., 2001). Plasmid pFlag-CREBH Full that expresses a full-length CREBH (amino acids 1-455) was constructed by insertion of a PCR product from pME-CREBH Full into expression vector pFlag-CMV-4 between EcoR I and BamH I. Vector pFlag-CMV-4 is designed for stable, cytoplasmic expression of N-terminal flag fusion proteins in mammalian cells (purchased from Sigma-Aldrich). Plasmid pFlag-CREBH-ΔC that expresses the nuclear form of CREBH (amino acids 1-320) was constructed by insertion of a PCR product from pME-CREBH d™ into pFlag-CMV-4 between EcoR I and BamH I. Plasmid pFlag-CREBH-DN that expresses only the CREBH bZIP domain (amino acids 209-320) was constructed by insertion of a PCR product from pME-CREBH Full into pFlag-CMV-4 between EcoR I and BamH I. The reporter plasmid containing the luciferase gene under control of the human CRP gene, pGL3-CRP, was constructed by insertion of a 637 bp fragment containing 5′-flanking and promoter region of the human CRP gene into luciferase reporter vector pGL3-basic (purchased from Promega, Madison, Wis.) between Sac I and Xho I. The 637 bp 5′-flanking fragment of the human CRP gene was amplified from human genomic DNA by using a forward primer: 5′-[…]-3′; and a reverse primer 5′-[…]-3′. The reporter plasmid containing the luciferase gene under control of the mouse SAP gene, pGL3-SAP, was constructed by insertion of an 863 bp fragment containing 5′-flanking and promoter region of the mouse SAP gene into pGL3-basic between Xho I and Hind III. […]

For assay [1], the system named is UPRE motif. The experiment in a line: UPRE luciferase reporter in H2.35 cells. The class given is cell-based. How it is done:
as §1, with “The amount of luciferase activity was normalized to the amount of β-galactosidase activity.” left out
At 36 h post transfection, transfected cells were lysed and assayed for luciferase and β-galactosidase activity by using a Tropix Luciferase/β-Galactosidase Dual Light. […] Photons were detected in an Optima II Luminator (MGM Instruments). […]

In assay [2] the test system is UPRE motif. Description: UPRE luciferase reporter analysis in COS7 cells. As to conditions: for activation of luciferase expression from UPRE reporter relative to vector control: absence of Tm. In kind it is cell-based.
A further assay relates to murine SAP mRNA. The experiment in a line: Endogenous SAP mRNA in liver after hydrodynamic plasmid DNA tail-vein injection (Northern blot). The class given is in vivo, mouse. As to conditions: wild-type mice; 80 μg plasmid DNA tail vein injection; 36 hours. How it is done: as §1
[3] abbreviates: H2.35 cells, Tm 5 μg/ml 10 hours, endogenous CREBH.
[4] abbreviates: co-expression with ATF6 p50, absence or presence of ER stress.
[5] abbreviates: co-expression with full-length or cleaved CREBH, absence or presence of ER stress.

B1: CREBH-DN: dominant negative truncated CREBH, only the bZIP domain (amino acids 209-320), expressed from plasmid pFlag-CREBH-DN (protein, UniProt Q68CJ9 209-320, looked up, fragment)
chain: HCQELVLTEDEKKLLAKEGITLPTQLPLTKYEERVLKKIRRKIRNKQSAQESRKKKKEYIDGLETRMSACTAQNQELQRKVLHLEKQNLSLLEQLKKLQAIVVQSTSKSAQT
modifications: bZIP domain Flag tag
notes: dominant negative truncated CREBH, only the bZIP domain (amino acids 209-320), expressed from plasmid pFlag-CREBH-DN
With B1, in the assay on human CRP promoter (setting [3]), the “luciferase expression from the human CRP promoter in response to ER stress” value was “efficiently suppressed luciferase expression”. Besides, in the assay on human CRP promoter (setting [4]), the “ATF6-mediated trans-activation on the CRP reporter” value is “efficiently suppressed ATF6-mediated trans-activation”. Further, the “CREBH-induced reporter gene expression, CRP reporter” value in the assay with human CRP promoter (setting [5]) was “significantly suppressed the ability for CREBH to induce reporter gene expression”. In addition, the “luciferase expression from the murine SAP promoter in response to ER stress” value in the assay with murine SAP promoter (setting [3]) was “efficiently suppressed luciferase expression”. The “ATF6-mediated trans-activation on the SAP reporter” value in the assay with murine SAP promoter (setting [4]) is “efficiently suppressed ATF6-mediated trans-activation”. The “CREBH-induced reporter gene expression, SAP reporter” value in the assay on murine SAP promoter (setting [5]) is reported as “significantly suppressed the ability for CREBH to induce reporter gene expression”. Further, the “ATF6-mediated trans-activation on the UPRE reporter” value with UPRE motif [1] (co-expression with ATF6 p50) is on record as “efficiently suppressed ATF6-mediated trans-activation”. For the same molecule, the “CREBH-induced reporter gene expression, UPRE reporter” value in the assay with UPRE motif [1] (co-expression with cleaved CREBH) is reported as “significantly suppressed the ability for CREBH to induce reporter gene expression”.

B2: CREBH-N: nuclear/cleaved form of CREBH (amino acids 1-320) expressed from a vector (protein, UniProt Q68CJ9 1-320, looked up, fragment)
chain: MNTDLAAGKMASAACSMDPIDSFELLDLLFDRQDGILRHVELGEGWGHVKDQQVLPNPDSDDFLSSILGSGDSLPSSPLWSPEGSDSGISEDLPSDPQDTPPRSGPATSPAGCHPAQPGKGPCLSYHPGNSCSTTTPGPVIQVPEASVTIDLEMWSPGGRICAEKPADPVDLSPRCNLTVKDLLLSGSSGDLQQHHLGASYLLRPGAGHCQELVLTEDEKKLLAKEGITLPTQLPLTKYEERVLKKIRRKIRNKQSAQESRKKKKEYIDGLETRMSACTAQNQELQRKVLHLEKQNLSLLEQLKKLQAIVVQSTSKSAQT
Turning to B2, the “activation of luciferase expression from UPRE reporter relative to vector control” value with UPRE motif [2] is listed as “approximately 18 fold”. For the same molecule, in the assay on human CRP promoter (H2.35 cells), the “expression of luciferase from the CRP reporter compared to the controls” value is about 11 fold. Moreover, the “expression of luciferase from the SAP reporter relative to vector control” value with murine SAP promoter (H2.35 cells, without Tm) is given as “approximately 16 fold”. In the assay with murine SAP mRNA, the “murine SAP mRNA in the liver compared to control vector” value is on record as “higher levels of the murine SAP mRNA”.

B3: CREBH-F: flag-tagged full-length CREBH (amino acids 1-455) expressed from a transfected vector (protein, UniProt Q68CJ9 1-461, looked up)
chain: MNTDLAAGKMASAACSMDPIDSFELLDLLFDRQDGILRHVELGEGWGHVKDQQVLPNPDSDDFLSSILGSGDSLPSSPLWSPEGSDSGISEDLPSDPQDTPPRSGPATSPAGCHPAQPGKGPCLSYHPGNSCSTTTPGPVIQVPEASVTIDLEMWSPGGRICAEKPADPVDLSPRCNLTVKDLLLSGSSGDLQQHHLGASYLLRPGAGHCQELVLTEDEKKLLAKEGITLPTQLPLTKYEERVLKKIRRKIRNKQSAQESRKKKKEYIDGLETRMSACTAQNQELQRKVLHLEKQNLSLLEQLKKLQAIVVQSTSKSAQTGTCVAVLLLSFALIILPSISPFGPNKTESPGDFAPVRVFSRTLHNDAASRVAADAVPGSEAPGPRPEADTTREESPGSPGADWGFQDTANLTNSTEELDNATLVLRNATEGLGQVALLDWVAPGPSTGSGRAGLEAAGDEL
modifications: full-length Flag tag
notes: flag-tagged full-length CREBH (amino acids 1-455) expressed from a transfected vector
Regarding B3, the “activation of luciferase expression from UPRE reporter relative to vector control” value in the assay with UPRE motif [2] is reported as “approximately 2 fold”. Also, the “activation of luciferase expression from UPRE reporter” value in the assay with UPRE motif [2] (after Tm treatment, 10 hours) is given as “more than 10 fold”. The “expression of luciferase under control of the human CRP promoter” value in the assay with human CRP promoter (H2.35 cells, expression of CREBH) was “significantly activated”. The “expression of luciferase from the SAP reporter relative to vector control” value with murine SAP promoter (H2.35 cells, Tm 5 μg/ml 10 hours) is given as “approximately 14 fold”; with murine SAP promoter (H2.35 cells, without Tm), “approximately 2.5 fold”.
